Bridge positions count the residues as written; N and C are the ends. Peptide text beside a SMILES is read from it. * marks the point of attachment. FITC = O=C1OC2(c3ccc(O)cc3Oc3cc(O)ccc32)c2ccc(NC(=S)*)cc21; GABA = NCCCC(=O)O

Results on eleven molecules are retold here after patent publication US20250346634A1, “CYCLIC PEPTIDES FOR TARGETING EPIDERMAL GROWTH FACTOR RECEPTOR AND MUTATIONS THEREOF FOR DRUG DELIVERY” (priority 2022, published 2025).

Series [1] deals with H1299, H1975 and DKMG cells. Description: Phage display biopanning with NGS, selection of EGFR-specific peptides. The format is cell-based. To be noted: 3 rounds of biopanning, K562-derived sequences excluded. On the procedure: A heptapeptide phage display library (Ph.D.-C7C Phage Display Library Kit, New England Biolabs, USA) was used for the in vitro biopanning experiments. All cell lines were individually incubated with phages from the stock library. […] Adherent cells (H1299, […] and DKMG) were plated at a density of 10^5 cells/ml in a 6-well plate. When the culture reached 80% confluence, the first well was incubated with phage library (10^11 pfu/10 μl) for 1 h at 37° C. with gentle stirring. The medium containing unbound phage was collected and transferred to the second, similar well and incubated again. The procedure was repeated with the third well. Cells in the third wells were washed four times with 0.5% Tween-20 in PBS. Then, 0.5 ml of elution buffer (0.2 M glycine-HCl, pH 2.2) was added and incubated for 10 min at 4° C.; the pH was neutralized by addition of 75 μl of 1 M Tris-HCl buffer, pH 9.0. The supernatant containing cell surface binding phage was collected. The cells were then lysed by incubation for 1 h at 4° C. with 2 ml of 30 mM Tris-HCl and 1 mM EDTA, pH 8.0. The medium was collected and centrifuged at 1,500 rpm for 5 min and the supernatant containing cell-internalized phage was transferred to a new tube. The internalized and surface-bound phages were amplified according to the manufacturer's instructions. An aliquot of the phages was retained for sequencing (see below) and the remainder was subjected to two additional rounds of biopanning. […]
Finally, two groups of peptides were constructed; the first included sequences that were present in all three EGFR+ve cell lines and included about 416 sequences; the second was divided into three subgroups, one for each cell line, wherein the subgroup for H1299 included some 1666 sequences, the subgroup for H1975 included some 10437 sequences, the subgroup for DKMG included some 981 sequences. From this list, top eleven S—S bridged cyclic peptides sequences were selected by their count in the sequencing data (the highest number of reads). […]

The test system of another series is H1299 cells. Description: XTT cytotoxicity assay on H1299 cells. The format is cell-based. As to conditions: for IC50: H1299. On the procedure:
(§1) Cell growth in the presence of PDCs was measured by a commercial XTT assay kit (Cell Proliferation Kit, XTT based; Biological Industries, Israel). The cells (10^4 cells/well) were seeded in 96 well plates and incubated overnight in complete growth medium. The cells were washed and then cultured in 100 μl of new medium containing various concentrations of drug or peptides, for 24 h, 48 h, and 72 h. The XTT solution was added to each well and the plate was further incubated 2-3 h at 37° C. The optical density in the wells was measured at both 480 nm and 680 nm using a TECAN Infinite M200 ELISA reader. All the tests were done in triplicates, and each experiment was repeated three times.
(§2) The cytotoxicity of the Peptide-Drug conjugates (PDCs) was tested in a range of concentrations (0.5-50 μM) against H1299 and DKMG cells using two protocols. In the first protocol, cells were pre-incubated with P6, P9, P6-CPT, and P9-CPT for 6 hours, the medium was removed, and a fresh, drug-free complete medium was added for additional 24 h (designated as 6h24h) or 48 h (6h48h). In the second protocol, cells were exposed continuously to PDCs for 24 h, 48 h, and 72 hours.
In general terms: Tetrazolium dyes change colour on reduction, which living cells bring about.

In series [2] the test system is EGFR+ve cells (H1299, DKMG) versus K562 cells. Briefly: Flow cytometry internalization of peptide-FITC conjugates. The format is cell-based. As to conditions: 2.5 μM FITC-labeled peptide. The source says:
Analysis was done with FACS cell analyzer.

In a further series the test system is DKMG cells. Briefly: XTT cytotoxicity assay on DKMG cells. The format is cell-based. On the procedure:
as §1, §2

The target in series [3] is T1, epidermal growth factor receptor (EGFR), wild type (human, UniProt P00533 25-1210).
T1 construct: whole, on cells; The target is inferred from tumour cell lines that overexpress EGFR, compared with EGFR-negative cells; No purified receptor was used; also called EGFRWT; EGFR WT
Briefly: flow cytometry, 2.5 uM FITC-peptide on H1299 cells (EGFR overexpressing). A general note: A flow cytometer gives signals particle by particle.

The target in series [4] is T2, EGFR variant III (EGFRvIII), on DKMG glioblastoma cells (human, UniProt P00533 25-1210).
T2 construct: whole, on cells; DKMG cells express both wild type EGFR (92% of cells) and EGFRvIII (82%); All results on DKMG cells are written against this molecule; also called EGFR mutant; EGFRVIII DKMG
Description: flow cytometry, 2.5 uM FITC-peptide on DKMG cells (EGFR WT and EGFRvIII).

Regarding `C[C@@H]1NC(=O)[C@@H](N)CSSC[C@@H](C(N)=O)NC(=O)[C@H](CCCNC(=N)N)NC(=O)CNC(=O)[C@@H]2CCCN2C(=O)[C@H]([C@@H](C)O)NC(=O)[C@H](Cc2ccc(O)cc2)NC(=O)[C@H](CCC(N)=O)NC1=O` [Peptide P11] (H-CAQYTPGRC-NH2; disulfide 1-9), in series [1], the “Cell line (peptide specificity per cell line; source of the cells from which the peptide was identified)” value is reported as “DKMG”.
As a reminder, the IC50 is the concentration that gives 50% inhibition. Low values mean greater potency in that assay, high ones weaker potency in that assay. On to `CC[C@H](C)[C@@H]1NC(=O)[C@H](Cc2ccc(O)cc2)NC(=O)[C@H](CO)NC(=O)CNC(=O)[C@@H]2CCCN2C(=O)[C@H](C(C)C)NC(=O)[C@H](Cc2cnc[nH]2)NC(=O)[C@@H](N)CSSC[C@@H](C(N)=O)NC1=O` [Peptide P6] (H-CHVPGSYIC-NH2; disulfide 1-9), for which the cytotoxicity entry with H1299 cells is reported as “did not demonstrate cytotoxicity”. For the same molecule, the values for the IC50 in the series with H1299 cells (24 h continuous exposure), with H1299 cells (48 h continuous exposure) and in the series with H1299 cells (72 h continuous exposure) were 27.5 ± 0.8 µM, 32 µM and 28.8 µM, respectively.
`CC(C)[C@@H]1NC(=O)[C@@H](NC(=O)CCCNC(=S)Nc2ccc3c(c2)C(=O)OC32c3ccc(O)cc3Oc3cc(O)ccc32)CSSC[C@@H](C(N)=O)NC(=O)[C@H](CCCNC(=N)N)NC(=O)CNC(=O)[C@H](Cc2ccccc2)NC(=O)[C@H](CCCNC(=N)N)NC(=O)[C@H](Cc2c[nH]c3ccccc23)NC(=O)[C@H](CCCNC(=N)N)NC1=O` [FITC-labeled P3] ({FITC-GABA}-CVRWRFGRC-NH2; disulfide 1-9): the “internalization (flow cytometry)” value in series [2] was “internalized only into to EGFR+ve cells”.
With `CC[C@@]1(O)C(=O)OCc2c1cc1n(c2=O)Cc2cc3ccccc3nc2-1` [CPT, (S)-(+)-camptothecin, reference compound], the IC50 amounted to 8.5 ± 1 µM in the series on DKMG cells (6 w 48 h (6 h pre-incubation, then 48 h drug-free medium)); 25 µM with DKMG cells (24 h continuous exposure); 6.7 ± 1.8 µM in the series on H1299 cells (Homo sapiens, NCI-H1299, 6 w 48 h (6 h pre-incubation, then 48 h drug-free medium)).

B1: FITC-labeled cyclic peptide P8, c(CSALWASHC) (peptide)
peptide: {FITC-GABA}-CSALWASHC-NH2
modifications: disulfide 1-9
SMILES: CC(C)C[C@@H]1NC(=O)[C@H](C)NC(=O)[C@H](CO)NC(=O)[C@@H](NC(=O)CCCNC(=S)Nc2ccc3c(c2)C(=O)OC32c3ccc(O)cc3Oc3cc(O)ccc32)CSSC[C@@H](C(N)=O)NC(=O)[C@H](Cc2c[nH]cn2)NC(=O)[C@H](CO)NC(=O)[C@H](C)NC(=O)[C@H](Cc2c[nH]c3ccccc23)NC1=O
notes: also called FITC-labeled P8
For B1, the binding result in series [3] and in series [4] was “binds” throughout.

B2: FITC-labeled cyclic peptide P5, c(CPNDSYHQC) (peptide)
peptide: {FITC-GABA}-CPNDSYHQC-NH2
modifications: disulfide 1-9
SMILES: NC(=O)CC[C@@H]1NC(=O)[C@H](Cc2c[nH]cn2)NC(=O)[C@H](Cc2ccc(O)cc2)NC(=O)[C@H](CO)NC(=O)[C@H](CC(=O)O)NC(=O)[C@H](CC(N)=O)NC(=O)[C@@H]2CCCN2C(=O)[C@@H](NC(=O)CCCNC(=S)Nc2ccc3c(c2)C(=O)OC32c3ccc(O)cc3Oc3cc(O)ccc32)CSSC[C@@H](C(N)=O)NC1=O
notes: also called FITC-labeled P5
As to B2, the binding result in series [3] and in series [4] was “binds” throughout.

B3: FITC-labeled cyclic peptide P2, c(CSAETVESC) (peptide)
peptide: {FITC-GABA}-CSAETVESC-NH2
modifications: disulfide 1-9
SMILES: CC(C)[C@@H]1NC(=O)[C@H]([C@@H](C)O)NC(=O)[C@H](CCC(=O)O)NC(=O)[C@H](C)NC(=O)[C@H](CO)NC(=O)[C@@H](NC(=O)CCCNC(=S)Nc2ccc3c(c2)C(=O)OC32c3ccc(O)cc3Oc3cc(O)ccc32)CSSC[C@@H](C(N)=O)NC(=O)[C@H](CO)NC(=O)[C@H](CCC(=O)O)NC1=O
notes: also called FITC-labeled P2
On to B3, for which the binding result in series [3] and in series [4] was “binds” throughout.

B4: FITC-labeled cyclic peptide P4, c(CLAVEVRPC) (peptide)
peptide: {FITC-GABA}-CLAVEVRPC-NH2
modifications: disulfide 1-9
SMILES: CC(C)C[C@@H]1NC(=O)[C@@H](NC(=O)CCCNC(=S)Nc2ccc3c(c2)C(=O)OC32c3ccc(O)cc3Oc3cc(O)ccc32)CSSC[C@@H](C(N)=O)NC(=O)[C@@H]2CCCN2C(=O)[C@H](CCCNC(=N)N)NC(=O)[C@H](C(C)C)NC(=O)[C@H](CCC(=O)O)NC(=O)[C@H](C(C)C)NC(=O)[C@H](C)NC1=O
notes: also called FITC-labeled P4
Take B4: the binding result in series [3] and in series [4] was “binds” each time.

B5: FITC-labeled cyclic peptide P11, c(CAQYTPGRC) (peptide)
peptide: {FITC-GABA}-CAQYTPGRC-NH2
modifications: disulfide 1-9
SMILES: C[C@@H]1NC(=O)[C@@H](NC(=O)CCCNC(=S)Nc2ccc3c(c2)C(=O)OC32c3ccc(O)cc3Oc3cc(O)ccc32)CSSC[C@@H](C(N)=O)NC(=O)[C@H](CCCNC(=N)N)NC(=O)CNC(=O)[C@@H]2CCCN2C(=O)[C@H]([C@@H](C)O)NC(=O)[C@H](Cc2ccc(O)cc2)NC(=O)[C@H](CCC(N)=O)NC1=O
notes: also called FITC-labeled P11
B5: the binding result in series [3] and in series [4] was “binds” each time.

B6: FITC-labeled cyclic peptide P9, c(CVNAMQSYC) (peptide)
peptide: {FITC-GABA}-CVNAMQSYC-NH2
modifications: disulfide 1-9
SMILES: CSCC[C@@H]1NC(=O)[C@H](C)NC(=O)[C@H](CC(N)=O)NC(=O)[C@H](C(C)C)NC(=O)[C@@H](NC(=O)CCCNC(=S)Nc2ccc3c(c2)C(=O)OC32c3ccc(O)cc3Oc3cc(O)ccc32)CSSC[C@@H](C(N)=O)NC(=O)[C@H](Cc2ccc(O)cc2)NC(=O)[C@H](CO)NC(=O)[C@H](CCC(N)=O)NC1=O
notes: also called FITC-P9; FITC-labeled P9
Take B6: the binding result in series [3] and in series [4] was “binds” each time.

B7: FITC-labeled cyclic peptide P3, c(CVRWRFGRC) (peptide)
peptide: {FITC-GABA}-CVRWRFGRC-NH2
modifications: disulfide 1-9
SMILES: CC(C)[C@@H]1NC(=O)[C@@H](NC(=O)CCCNC(=S)Nc2ccc3c(c2)C(=O)OC32c3ccc(O)cc3Oc3cc(O)ccc32)CSSC[C@@H](C(N)=O)NC(=O)[C@H](CCCNC(=N)N)NC(=O)CNC(=O)[C@H](Cc2ccccc2)NC(=O)[C@H](CCCNC(=N)N)NC(=O)[C@H](Cc2c[nH]c3ccccc23)NC(=O)[C@H](CCCNC(=N)N)NC1=O
notes: also called FITC-labeled P3
In the case of B7, the binding result in series [3] and in series [4] was “binds” each time.
